Measured values as given in the supplement of paper PMC7125110.
± gives the standard error. Fewer inactive variants are shown than the library holds.

B1: glmS ribozyme (parent)
chain: AUAAAAGCGCCAGAACUACAGAAAUGUAGUUGACGAGGAGGAGGUUUAUCGAAUUUUCGGCGGAUGCCUCCAAA

Key:
Conditions in all cases: with glucosamine-6-phosphate
glucosamine-6-phosphate [1] = variants of: B1; experiment: self-cleavage kobs at 640 uM GlcN6P; higher = faster cleavage; RNA array
In short: (§1)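 Weighted Michaelis–Menten fits across concentrations supplied kcat and KM, based on kobs from one- or two-exponential decay fits to normalised per-tile medians. The data came from barcoded ribozyme variants transcribed in situ by E. coli RNA polymerase on sequenced MiSeq chips and tracked at 37 °C by a hybridised Cy3 probe. Glucosamine-6-phosphate (40 μM to 10 mM) in HEPES/KCl/Mg(OAc)2 buffer was flowed in.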

glucosamine-6-phosphate [2] = variants of: B1; experiment: self-cleavage kobs at 2500 uM GlcN6P; higher = faster cleavage; RNA array
In short: as §1

glucosamine-6-phosphate [3] = variants of: B1; experiment: self-cleavage kobs at 10000 uM GlcN6P; higher = faster cleavage; RNA array
In short: as §1

| Variant | self-cleavage kobs at 640 uM GlcN6P (glucosamine-6-phosphate [1]) [s⁻¹] | self-cleavage kobs at 2500 uM GlcN6P (glucosamine-6-phosphate [2]) [s⁻¹] | self-cleavage kobs at 10000 uM GlcN6P (glucosamine-6-phosphate [3]) [s⁻¹] |
| --- | --- | --- | --- |
| AUAAAAGCGCCAGAACUACAGAAAUGUAGUUGACGAGAAGUCGGCUUAUCGAAGUUUCGGCGGAUGCGUCCAAA [G38A G41U A42C U45C U54G C68G] | < 1e-05 |  |  |
| AUAAAAGCGCCAGAACUACAGAAAUGUAGUUGACGAGAAGGAGGUUUAUCGGAUUUUCGGCGGAUGCGUCCAAA [G38A A52G C68G] | 7.2e-05 ± 2.5e-05 |  |  |
| AUAAAAGCGCCAGAACUACAGAAAUGUAGUUGACGACGAGGAGGUUUAUUGAGUUCUCGGCGGAUGCCUCCAAA [G37C C50U A53G U56C] | < 1e-05 |  |  |
| AUAAAAGCGCCAGAACUACAGAAAUGUAGUUGACGAAGAUGAGGUUUAUCGAAUGUUCGGCGGAUGCCUCCAAA [G37A G40U U55G] | 6.13e-05 ± 2.5e-05 | 6.99e-05 ± 1.6e-05 |  |
| AUAAAAGCGCCAGAACUACAGAAAUGUAGUUGACGAGUAGGAGGUUUAUCGAAUUUUCGGAGGAUGCCUCCAAA [G38U C61A] | < 1e-05 |  |  |
| AUAAAAGCGCCAGAACUACAGAAAUGUAGUUGACGAUGAGGAGGUUUAUACAAUUUUCGGCGGAUGCCUCCAAA [G37U C50A G51C] | < 1e-05 |  |  |
| AUAAAAGCGCCAGAACUACAGAAAUGUAGUUGACGAUGAGGAGGUUUGUCGAAUUUUCGGCGGAUGCCUUCAAA [G37U A48G C70U] | < 1e-05 |  |  |
| AUAAAAGCGCCAGAACUACAGAAAUGUAGUUGACGAGCAGUAGCUUUAUCGAAUUUUCGGCGGAUGCCUCCAAA [G38C G41U G44C] | < 1e-05 | < 1e-05 |  |
| AUAAAAGCGCCAGAACUACAGAAAUGUAGUUGACGAAGAGGAGGUUUUUCGAACUUUCGGCGGAUGCCUCCAAA [G37A A48U U54C] | < 1e-05 |  |  |
| AUAAAAGCGCCAGAACUACAGAAAUGUAGUUGACGAGGCGGAGGUUUAUCGCAUUUUCGGCGGAUGCCUCAAAA [A39C A52C C71A] | < 1e-05 | < 1e-05 |  |
| AUAAAAGCGCCAGAACUACAGAAAUGUAGUUGACGAGAAGGUGGUUUAUCGAAUUUUCGUCGGAUGCCUCGAAA [G38A A42U G60U C71G] | < 1e-05 |  |  |
| AUAAAAGCGCCAGAACUACAGAAAUGUAGUUGACGAGGGGGGGGUUUAUAGAAUUUUCGGCGGAUGCCUCCAAA [A39G A42G C50A] | < 1e-05 | < 1e-05 |  |
| AUAAAAGCGCCAGAACUACAGAAAUGUAGUUGACGAUGAGCAGGUUUAUCGAAUUUUCGUCGGAUGCCUCCAAA [G37U G41C G60U] | < 1e-05 |  |  |
| AUAAAAGCGCCAGAACUACAGAAAUGUAGUUGACGAUGAGGAGGUUUAUCGAAUUUUCGGCUGAUGCCUCCAAA [G37U G62U] | < 1e-05 |  |  |
| AUAAAAGCGCCAGAACUACAGAAAUGUAGUUGACGAGUAGGAGGUUUAUAGAAUUUUCGGCGGAUGCCUCCAAA [G38U C50A] | < 1e-05 | < 1e-05 |  |
| AUAAAAGCGCCAGAACUACAGAAAUGUAGUUGACGAGCAGGAAGUUUAUCGAAUUUUCGGCGGGUGCCUCCAAA [G38C G43A A64G] | < 1e-05 |  |  |
| AUAAAAGCGCCAGAACUACAGAAAUGUAGUUGACGAAGAGGAGGUUUAUCGAAUUUUCGGCGGGUGCCUCUAAA [G37A A64G C71U] | 3.85e-05 ± 1.7e-05 |  |  |
| AUAAAAGCGCCAGAACUACAGAAAUGUAGUUGACGAAGAGGAGGUUUAUCGAAUUUUCGGCGGGUGGCUCCAAA [G37A A64G C67G] | < 1e-05 |  |  |
| AUAAAAGCGCCAGAACUACAGAAAUGUAGUUGACGAAGAGGAGGUGUAUCGAAUUUUCGGCGGAUGCCUCUAAA [G37A U46G C71U] | 6.59e-05 ± 3.1e-05 |  |  |
| AUAAAAGCGCCAGAACUACAGAAAUGUAGUUGACGUGGAGGAGGUUUAUCGAUUUUUCGGCGGAAGCCUCCAAA [A36U A53U U65A] | < 1e-05 | < 1e-05 |  |
| AUAAAAGCGCCAGAACUACAGAAAUGUAGUUGACGAGGCGGAGGGUUAUCGAAUUUUCGGCGGAUGCCUGCAAA [A39C U45G C70G] | < 1e-05 | < 1e-05 |  |
| AUAAAAGCGCCAGAACUACAGAAAUGUAGUUGACGAGUAGAAGGUGUAGCGAAUUUUCGGCGGAUGCCUCCAAA [G38U G41A U46G U49G] | < 1e-05 |  | < 1e-05 |
| AUAAAAGCGCCAGAACUACAGAAAUGUAGUUGACGUGGAGGCGGUUAAUCGAAUUUUCGGCGGAUGCCUCCAAA [A36U A42C U47A] | < 1e-05 | < 1e-05 |  |
| AUAAAAGCGCCAGAACUACAGAAAUGUAGUUGACGAGAAGGAGUUUUAUCGAAUUUUCGGCUGAUGCCUCCAAA [G38A G44U G62U] | < 1e-05 | < 1e-05 |  |

| Variant | self-cleavage kobs at 640 uM GlcN6P (glucosamine-6-phosphate [1]) [s⁻¹] | self-cleavage kobs at 2500 uM GlcN6P (glucosamine-6-phosphate [2]) [s⁻¹] | self-cleavage kobs at 10000 uM GlcN6P (glucosamine-6-phosphate [3]) [s⁻¹] |
| --- | --- | --- | --- |
| AUAAAAGCGCCAGAACUACAGAAAUGUAGUUGACGUGGAGGAGGAUUAUCGAAUUUUCGGCGUAUGCCUCCAAA [A36U U45A G63U] | < 1e-05 | < 1e-05 |  |
| AUAAAAGCGCCAGAACUACAGAAAUGUAGUUGACGAUGAGGAGGUUUAUCGAAUUUUCGGGGGAUGCCUCCAAA [G37U C61G] | < 1e-05 |  | < 1e-05 |
| AUAAAAGCGCCAGAACUACAGAAAUGUAGUUGACGAGGCGGAGGUUUAUCAAAUUUUCGGCGGGUGCCUCCAAA [A39C G51A A64G] | < 1e-05 |  |  |
| AUAAAAGCGCCAGAACUACAGAAAUGUAGUUGACGAGGGGGAGGUUUAUCGACUUUUCGGCGGAUGUCUCCAAA [A39G A53C C67U] | 0.00111 ± 0.00036 | 0.000701 ± 0.00027 |  |
| AUAAAAGCGCCAGAACUACAGAAAUGUAGUUGACGAUGCGGAGGUUUAUCGAAUUUUCGGCGGGUGCCGCCAAA [G37U A39C A64G U69G] | < 1e-05 |  |  |
| AUAAAAGCGCCAGAACUACAGAAAUGUAGUUGACGUGGUGGAGGUUUAUCGAAUUUUCGGCGGAUGCCUCUAAA [A36U A39U C71U] | < 1e-05 |  |  |
| AUAAAAGCGCCAGAACUACAGAAAUGUAGUUGACGAUGAGGAGGUUUAUCGAAUUUUCGGCGGUUGCCUCCAAA [G37U A64U] | < 1e-05 | < 1e-05 |  |
| AUAAAAGCGCCAGAACUACAGAAAUGUAGUUGACGAAGAGGAUGUUUAUCGAAUUUUCGGCUGAUCACUCCAAA [G37A G43U G62U G66C C67A] | < 1e-05 | < 1e-05 | < 1e-05 |
| AUAAAAGCGCCAGAACUACAGAAAUGUAGUUGACGAUGUUGAGGUUUUUGGAAUUUUCGGCGGAUGACUCCAAA [G37U A39U G40U A48U C50G C67A] | < 1e-05 | < 1e-05 |  |
| AUAAAAGCGCCAGAACUACAGAAAUGUAGUUGACGACGAGGAGGUUUACCGAAUUUUCGGCGGAUGCCUCCAAA [G37C U49C] | < 1e-05 | < 1e-05 | < 1e-05 |
| AUAAAAGCGCCAGAACUACAGAAAUGUAGUUGACGAUGAGGCGGUUUAUAGAAUUUUCGGCGGUUGCCUCCAAA [G37U A42C C50A A64U] | < 1e-05 |  |  |
| AUAAAAGCGCCAGAACUACAGAAAUGUAGUUGACGAAGAGGAGGUUUCUCGAAUGUUCGGCGGAUGCCUCCAAA [G37A A48C U55G] | < 1e-05 |  |  |
| AUAAAAGCGCCAGAACUACAGAAAUGUAGUUGACGAGCAGGAGGUUUAUCGAAUAUUCGGCGGCUGCCUCCAAA [G38C U55A A64C] | < 1e-05 |  |  |
| AUAAAAGCGCCAGAACUACAGAAAUGUAGUUGACGAGGCGGAGGGUUAUCGAAUUGUCGGCGGAUGCCUCCAAA [A39C U45G U56G] | 7.85e-05 ± 2.3e-05 |  |  |
| AUAAAAGCGCCAGAACUACAGAAAUGUAGUUGACGAGAAGGAGGUUUAUCGAAUUUACGGCGGAUGCCUCCAAA [G38A U57A] | < 1e-05 |  | < 1e-05 |
| AUAAAAGCGCCAGAACUACAGAAAUGUAGUUGACGAGAUGGAGGUUUAUCGAAUGUUCGGCGGAUGCCGCCAAA [G38A A39U U55G U69G] | < 1e-05 |  |  |
| AUAAAAGCGCCAGAACUACAGAAAUGUAGUUGACGUGGAUGAGGUUUAUCGAAUUUUCGUCGGAUGCCUCCAAA [A36U G40U G60U] | < 1e-05 | < 1e-05 |  |
| AUAAAAGCGCCAGAACUACAGAAAUGUAGUUGACGAAGAGGAGGCUUAUCGAAUUUUCGGCGGAUGCCUCCAAA [G37A U45C] | 5.03e-05 ± 1.6e-05 | 6.95e-05 ± 1.3e-05 | 0.000173 ± 4.9e-05 |
| AUAAAAGCGCCAGAACUACAGAAAUGUAGUUGACGACGAUGAGGUGUAUCGAAUUUUCGGCGUAUGCCUCCAAA [G37C G40U U46G G63U] | < 1e-05 |  | < 1e-05 |
| AUAAAAGCGCCAGAACUACAGAAAUGUAGUUGACGAGCAGGAGUUUUAUCCCAUUUUCGGCGGAUGCCUCUAAA [G38C G44U G51C A52C C71U] | < 1e-05 |  |  |
| AUAAAAGCGCCAGAACUACAGAAAUGUAGUUGACGAAGAGGGGGUUUAUCGAAUUUUCGGCGGAUGCCUCGAAA [G37A A42G C71G] | 8.96e-05 ± 2.4e-05 | 5.5e-05 ± 1.6e-05 | 8.16e-05 ± 2.3e-05 |
| AUAAAAGCGCCAGAACUACAGAAAUGUAGUUGACGACGAGGAGGUUUCUCGAAUUUUCGGCGGAUGCCUCGAAA [G37C A48C C71G] | < 1e-05 |  |  |
| AUAAAAGCGCCAGAACUACAGAAAUGUAGUUGACGUGGAGGAUGUUUAUCGAAUUUUCGGCGGAAGCCUCCAAA [A36U G43U U65A] | < 1e-05 | < 1e-05 |  |
